In the test the target is T1, mature myostatin (UniProt O08689 268-376, limits assumed).
T1 construct: mature; also called MSTN
T1 sequence (looked up): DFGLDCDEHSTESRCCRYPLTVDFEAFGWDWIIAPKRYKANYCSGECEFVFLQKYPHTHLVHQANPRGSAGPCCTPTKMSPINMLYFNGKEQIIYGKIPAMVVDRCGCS
The experiment in a line: ELISA, biotinylated peptide on coated myostatin, with or without zinc. On the procedure:
For this, 3 μl of myostatin at a concentration of 100 ng/μl are taken up in 50 μl of carbonate buffer and added to each well of the assay plate (R&D Systems DY990). After an overnight incubation at 4° C., the plate is washed with 100 μl of PBS-Tween (0.05% Tween 20), then the blocking step to saturate non-specific sites is carried out for 2 hours at room temperature with 100 μl of PBS and 6% of milk per well. Five successive washes with 200 μl of PBS-Tween (0.05% Tween 20) are performed and increasing amounts of biotinylated fibromodulin peptides are then deposited (100 μl final in PBS) and the plate is incubated for 1 hour at 37° C. For the positive control, an antibody of goat anti-myostatin (≠AF788, R&D Systems), which was deposited in the control wells and incubated for 1 hour at 1/100th (0.1 mg/ml) was […]. The wells were then washed 5 times with PBS-Tween (0.05% Tween 20). […] After five washes, adding the peroxidase substrate, the TMB Substrate Reagent Set (Tetramehylbenzidine, OptEIA, ≠555214) allows the obtention of a colored reaction proportional to the quantity of HRP present in the wells. The reaction is stopped after 20 minutes by addition of sulfuric acid 2N, and the plate is read at 450 nm on a Discovery HT-R spectrophotometer (Bio-TEK).
For orientation: In an ELISA, binding on a coated surface is turned into a signal by an enzyme label.

The star is where a group is joined. Biotin = O=C1N[C@H]2[C@H](CS[C@H]2CCCCC(=O)*)N1

From patent US20140323400A1 (ASSOCIATION FRANCAISE CONTRE LES MYOPATHIES, published 2014) come the findings set out here.

B1: Peptide Biotine-69-101 mFibromoduline mutated (Fmod mutated) (peptide)
peptide: Biotin-PPPEPRDCPQEADAPPNFPTAMYADNRNLKYLP-NH2
SMILES: CSCC[C@H](NC(=O)[C@H](C)NC(=O)[C@@H](NC(=O)[C@@H]1CCCN1C(=O)[C@H](Cc1ccccc1)NC(=O)[C@H](CC(N)=O)NC(=O)[C@@H]1CCCN1C(=O)[C@@H]1CCCN1C(=O)[C@H](C)NC(=O)[C@H](CC(=O)O)NC(=O)[C@H](C)NC(=O)[C@H](CCC(=O)O)NC(=O)[C@H](CCC(N)=O)NC(=O)[C@@H]1CCCN1C(=O)[C@H](CS)NC(=O)[C@H](CC(=O)O)NC(=O)[C@H](CCCNC(=N)N)NC(=O)[C@@H]1CCCN1C(=O)[C@H](CCC(=O)O)NC(=O)[C@@H]1CCCN1C(=O)[C@@H]1CCCN1C(=O)[C@@H]1CCCN1C(=O)CCCC[C@@H]1SC[C@@H]2NC(=O)N[C@@H]21)[C@@H](C)O)C(=O)N[C@@H](Cc1ccc(O)cc1)C(=O)N[C@@H](C)C(=O)N[C@@H](CC(=O)O)C(=O)N[C@@H](CC(N)=O)C(=O)N[C@@H](CCCNC(=N)N)C(=O)N[C@@H](CC(N)=O)C(=O)N[C@@H](CC(C)C)C(=O)N[C@@H](CCCCN)C(=O)N[C@@H](Cc1ccc(O)cc1)C(=O)N[C@@H](CC(C)C)C(=O)N1CCC[C@H]1C(N)=O
notes: also called mutated biotin mFmod peptide
Regarding B1, the binding result is “no binding”.
